Data published in patent US20190233493A1 (Sanofi, published 2019).
*1 amine or outer side, *2 acyl side, *3 side chain or, on linkers, in order; H or OH if unused. Side-chain parts run from the residue outwards. [ ]: non-standard residue; d: D form. The star is where a group is joined. PEG12 = NCCOCCOCCOCCOCCOCCOCCOCCOCCOCCOCCOCCOCCC(=O)O; γGlu = O=C(O)[C@H](CCC(=O)[*:2])N[*:1]; Stearoyl = CCCCCCCCCCCCCCCCCC(=O)*; Palmitoyl = CCCCCCCCCCCCCCCC(=O)*; Nle = CCCC[C@H](N)C(=O)O; Aib = CC(C)(N)C(=O)O

T1: RXFP1 receptor (UniProt Q9HBX9 1-757, limits assumed)
T1 sequence (looked up): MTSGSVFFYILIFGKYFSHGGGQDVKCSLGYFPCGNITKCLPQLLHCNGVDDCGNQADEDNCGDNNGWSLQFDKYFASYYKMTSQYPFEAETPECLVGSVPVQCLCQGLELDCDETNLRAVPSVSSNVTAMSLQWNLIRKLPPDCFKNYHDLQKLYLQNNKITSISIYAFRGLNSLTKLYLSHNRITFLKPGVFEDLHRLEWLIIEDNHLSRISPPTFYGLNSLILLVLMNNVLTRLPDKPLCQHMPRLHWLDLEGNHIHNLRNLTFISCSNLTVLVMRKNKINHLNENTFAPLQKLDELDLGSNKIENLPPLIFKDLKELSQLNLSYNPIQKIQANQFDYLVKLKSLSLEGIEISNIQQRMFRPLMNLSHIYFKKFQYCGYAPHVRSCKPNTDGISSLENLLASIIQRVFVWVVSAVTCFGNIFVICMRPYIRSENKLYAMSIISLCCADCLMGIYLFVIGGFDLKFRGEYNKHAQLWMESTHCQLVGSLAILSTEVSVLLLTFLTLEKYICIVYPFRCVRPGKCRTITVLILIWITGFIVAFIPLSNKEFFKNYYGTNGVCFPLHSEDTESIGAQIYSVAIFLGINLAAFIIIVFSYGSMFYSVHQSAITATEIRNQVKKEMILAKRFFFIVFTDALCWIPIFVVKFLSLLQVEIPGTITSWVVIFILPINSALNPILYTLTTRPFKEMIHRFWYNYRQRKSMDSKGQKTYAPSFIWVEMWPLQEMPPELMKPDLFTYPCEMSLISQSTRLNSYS

B1: peptide of SEQ ID NO: 3 (peptide)
peptide: Ac-LEGREKVRAQI[Aib][Aib]EG[Nle]STWS[Aib]RKK([γGlu-Stearoyl])-NH2
SMILES: CCCCCCCCCCCCCCCCCC(=O)N[C@@H](CCC(=O)NCCCC[C@H](NC(=O)[C@H](CCCCN)NC(=O)[C@H](CCCNC(=N)N)NC(=O)C(C)(C)NC(=O)[C@H](CO)NC(=O)[C@H](Cc1c[nH]c2ccccc12)NC(=O)[C@@H](NC(=O)[C@H](CO)NC(=O)[C@H](CCCC)NC(=O)CNC(=O)[C@H](CCC(=O)O)NC(=O)C(C)(C)NC(=O)C(C)(C)NC(=O)[C@@H](NC(=O)[C@H](CCC(N)=O)NC(=O)[C@H](C)NC(=O)[C@H](CCCNC(=N)N)NC(=O)[C@@H](NC(=O)[C@H](CCCCN)NC(=O)[C@H](CCC(=O)O)NC(=O)[C@H](CCCNC(=N)N)NC(=O)CNC(=O)[C@H](CCC(=O)O)NC(=O)[C@H](CC(C)C)NC(C)=O)C(C)C)[C@@H](C)CC)[C@@H](C)O)C(N)=O)C(=O)O
B2: peptide of SEQ ID NO: 23 (peptide)
peptide: Ac-LEGREKVRAQI[Aib][Aib]EGMSTWS[Aib]RK[PEG12]K([γGlu-γGlu-γGlu-Palmitoyl])-NH2
SMILES: CCCCCCCCCCCCCCCC(=O)N[C@@H](CCC(=O)N[C@@H](CCC(=O)N[C@@H](CCC(=O)NCCCC[C@H](NC(=O)CCOCCOCCOCCOCCOCCOCCOCCOCCOCCOCCOCCOCCNC(=O)[C@H](CCCCN)NC(=O)[C@H](CCCNC(=N)N)NC(=O)C(C)(C)NC(=O)[C@H](CO)NC(=O)[C@H](Cc1c[nH]c2ccccc12)NC(=O)[C@@H](NC(=O)[C@H](CO)NC(=O)[C@H](CCSC)NC(=O)CNC(=O)[C@H](CCC(=O)O)NC(=O)C(C)(C)NC(=O)C(C)(C)NC(=O)[C@@H](NC(=O)[C@H](CCC(N)=O)NC(=O)[C@H](C)NC(=O)[C@H](CCCNC(=N)N)NC(=O)[C@@H](NC(=O)[C@H](CCCCN)NC(=O)[C@H](CCC(=O)O)NC(=O)[C@H](CCCNC(=N)N)NC(=O)CNC(=O)[C@H](CCC(=O)O)NC(=O)[C@H](CC(C)C)NC(C)=O)C(C)C)[C@@H](C)CC)[C@@H](C)O)C(N)=O)C(=O)O)C(=O)O)C(=O)O
B3: peptide of SEQ ID NO: 21 (peptide)
peptide: Ac-LEGREKVRAQI[Aib][Aib]EG[Nle]STWS[Aib]RKK(Ac)[PEG12]K(Stearoyl)-NH2
SMILES: CCCCCCCCCCCCCCCCCC(=O)NCCCC[C@H](NC(=O)CCOCCOCCOCCOCCOCCOCCOCCOCCOCCOCCOCCOCCNC(=O)[C@H](CCCCNC(C)=O)NC(=O)[C@H](CCCCN)NC(=O)[C@H](CCCNC(=N)N)NC(=O)C(C)(C)NC(=O)[C@H](CO)NC(=O)[C@H](Cc1c[nH]c2ccccc12)NC(=O)[C@@H](NC(=O)[C@H](CO)NC(=O)[C@H](CCCC)NC(=O)CNC(=O)[C@H](CCC(=O)O)NC(=O)C(C)(C)NC(=O)C(C)(C)NC(=O)[C@@H](NC(=O)[C@H](CCC(N)=O)NC(=O)[C@H](C)NC(=O)[C@H](CCCNC(=N)N)NC(=O)[C@@H](NC(=O)[C@H](CCCCN)NC(=O)[C@H](CCC(=O)O)NC(=O)[C@H](CCCNC(=N)N)NC(=O)CNC(=O)[C@H](CCC(=O)O)NC(=O)[C@H](CC(C)C)NC(C)=O)C(C)C)[C@@H](C)CC)[C@@H](C)O)C(N)=O
B4: peptide of SEQ ID NO: 26 (peptide)
peptide: Ac-LEGREKVRAK(Ac)I[Aib][Aib]EG[Nle]STWS[Aib]RKK(Ac)[PEG12]K([γGlu-γGlu-γGlu-Palmitoyl])-NH2
SMILES: CCCCCCCCCCCCCCCC(=O)N[C@@H](CCC(=O)N[C@@H](CCC(=O)N[C@@H](CCC(=O)NCCCC[C@H](NC(=O)CCOCCOCCOCCOCCOCCOCCOCCOCCOCCOCCOCCOCCNC(=O)[C@H](CCCCNC(C)=O)NC(=O)[C@H](CCCCN)NC(=O)[C@H](CCCNC(=N)N)NC(=O)C(C)(C)NC(=O)[C@H](CO)NC(=O)[C@H](Cc1c[nH]c2ccccc12)NC(=O)[C@@H](NC(=O)[C@H](CO)NC(=O)[C@H](CCCC)NC(=O)CNC(=O)[C@H](CCC(=O)O)NC(=O)C(C)(C)NC(=O)C(C)(C)NC(=O)[C@@H](NC(=O)[C@H](CCCCNC(C)=O)NC(=O)[C@H](C)NC(=O)[C@H](CCCNC(=N)N)NC(=O)[C@@H](NC(=O)[C@H](CCCCN)NC(=O)[C@H](CCC(=O)O)NC(=O)[C@H](CCCNC(=N)N)NC(=O)CNC(=O)[C@H](CCC(=O)O)NC(=O)[C@H](CC(C)C)NC(C)=O)C(C)C)[C@@H](C)CC)[C@@H](C)O)C(N)=O)C(=O)O)C(=O)O)C(=O)O
B5: peptide of SEQ ID NO: 22 (peptide)
peptide: Ac-LEGREKVRAQI[Aib][Aib]EG[Nle]STWS[Aib]RKK[PEG12]K([γGlu-Stearoyl])-NH2
SMILES: CCCCCCCCCCCCCCCCCC(=O)N[C@@H](CCC(=O)NCCCC[C@H](NC(=O)CCOCCOCCOCCOCCOCCOCCOCCOCCOCCOCCOCCOCCNC(=O)[C@H](CCCCN)NC(=O)[C@H](CCCCN)NC(=O)[C@H](CCCNC(=N)N)NC(=O)C(C)(C)NC(=O)[C@H](CO)NC(=O)[C@H](Cc1c[nH]c2ccccc12)NC(=O)[C@@H](NC(=O)[C@H](CO)NC(=O)[C@H](CCCC)NC(=O)CNC(=O)[C@H](CCC(=O)O)NC(=O)C(C)(C)NC(=O)C(C)(C)NC(=O)[C@@H](NC(=O)[C@H](CCC(N)=O)NC(=O)[C@H](C)NC(=O)[C@H](CCCNC(=N)N)NC(=O)[C@@H](NC(=O)[C@H](CCCCN)NC(=O)[C@H](CCC(=O)O)NC(=O)[C@H](CCCNC(=N)N)NC(=O)CNC(=O)[C@H](CCC(=O)O)NC(=O)[C@H](CC(C)C)NC(C)=O)C(C)C)[C@@H](C)CC)[C@@H](C)O)C(N)=O)C(=O)O
B6: peptide of SEQ ID NO: 24 (peptide)
peptide: Ac-LEGREKVRAQI[Aib][Aib]EG[Nle]STWS[Aib]RK[PEG12]K([γGlu-γGlu-γGlu-Palmitoyl])-NH2
SMILES: CCCCCCCCCCCCCCCC(=O)N[C@@H](CCC(=O)N[C@@H](CCC(=O)N[C@@H](CCC(=O)NCCCC[C@H](NC(=O)CCOCCOCCOCCOCCOCCOCCOCCOCCOCCOCCOCCOCCNC(=O)[C@H](CCCCN)NC(=O)[C@H](CCCNC(=N)N)NC(=O)C(C)(C)NC(=O)[C@H](CO)NC(=O)[C@H](Cc1c[nH]c2ccccc12)NC(=O)[C@@H](NC(=O)[C@H](CO)NC(=O)[C@H](CCCC)NC(=O)CNC(=O)[C@H](CCC(=O)O)NC(=O)C(C)(C)NC(=O)C(C)(C)NC(=O)[C@@H](NC(=O)[C@H](CCC(N)=O)NC(=O)[C@H](C)NC(=O)[C@H](CCCNC(=N)N)NC(=O)[C@@H](NC(=O)[C@H](CCCCN)NC(=O)[C@H](CCC(=O)O)NC(=O)[C@H](CCCNC(=N)N)NC(=O)CNC(=O)[C@H](CCC(=O)O)NC(=O)[C@H](CC(C)C)NC(C)=O)C(C)C)[C@@H](C)CC)[C@@H](C)O)C(N)=O)C(=O)O)C(=O)O)C(=O)O
B7: peptide of SEQ ID NO: 27 (peptide)
peptide: Ac-LEGREKVR[Aib]K(Ac)I[Aib][Aib]EG[Nle]STWS[Aib]RKK(Ac)[PEG12]K([γGlu-γGlu-γGlu-Palmitoyl])-NH2
SMILES: CCCCCCCCCCCCCCCC(=O)N[C@@H](CCC(=O)N[C@@H](CCC(=O)N[C@@H](CCC(=O)NCCCC[C@H](NC(=O)CCOCCOCCOCCOCCOCCOCCOCCOCCOCCOCCOCCOCCNC(=O)[C@H](CCCCNC(C)=O)NC(=O)[C@H](CCCCN)NC(=O)[C@H](CCCNC(=N)N)NC(=O)C(C)(C)NC(=O)[C@H](CO)NC(=O)[C@H](Cc1c[nH]c2ccccc12)NC(=O)[C@@H](NC(=O)[C@H](CO)NC(=O)[C@H](CCCC)NC(=O)CNC(=O)[C@H](CCC(=O)O)NC(=O)C(C)(C)NC(=O)C(C)(C)NC(=O)[C@@H](NC(=O)[C@H](CCCCNC(C)=O)NC(=O)C(C)(C)NC(=O)[C@H](CCCNC(=N)N)NC(=O)[C@@H](NC(=O)[C@H](CCCCN)NC(=O)[C@H](CCC(=O)O)NC(=O)[C@H](CCCNC(=N)N)NC(=O)CNC(=O)[C@H](CCC(=O)O)NC(=O)[C@H](CC(C)C)NC(C)=O)C(C)C)[C@@H](C)CC)[C@@H](C)O)C(N)=O)C(=O)O)C(=O)O)C(=O)O
B8: peptide of SEQ ID NO: 25 (peptide)
peptide: Ac-LEGREKVRAK(Ac)I[Aib][Aib]EGMSTWS[Aib]RK[PEG12]K([γGlu-γGlu-γGlu-Palmitoyl])-NH2
SMILES: CCCCCCCCCCCCCCCC(=O)N[C@@H](CCC(=O)N[C@@H](CCC(=O)N[C@@H](CCC(=O)NCCCC[C@H](NC(=O)CCOCCOCCOCCOCCOCCOCCOCCOCCOCCOCCOCCOCCNC(=O)[C@H](CCCCN)NC(=O)[C@H](CCCNC(=N)N)NC(=O)C(C)(C)NC(=O)[C@H](CO)NC(=O)[C@H](Cc1c[nH]c2ccccc12)NC(=O)[C@@H](NC(=O)[C@H](CO)NC(=O)[C@H](CCSC)NC(=O)CNC(=O)[C@H](CCC(=O)O)NC(=O)C(C)(C)NC(=O)C(C)(C)NC(=O)[C@@H](NC(=O)[C@H](CCCCNC(C)=O)NC(=O)[C@H](C)NC(=O)[C@H](CCCNC(=N)N)NC(=O)[C@@H](NC(=O)[C@H](CCCCN)NC(=O)[C@H](CCC(=O)O)NC(=O)[C@H](CCCNC(=N)N)NC(=O)CNC(=O)[C@H](CCC(=O)O)NC(=O)[C@H](CC(C)C)NC(C)=O)C(C)C)[C@@H](C)CC)[C@@H](C)O)C(N)=O)C(=O)O)C(=O)O)C(=O)O

Molecular target: T1, RXFP1 receptor
Assay: cell-based or functional assay

| Binder | EC50 (nM), OVCAR 5 cells (cAMP) | EMax, OVCAR 5 cells (cAMP) |
| --- | --- | --- |
| B1 | 28.5 nM | 93% |
| B2 | 3.62 nM | 89% |
| B3 | 38.6 nM | 88% |
| B4 | 0.57 nM | 85% |
| B5 | 21.4 nM | 104% |
| B6 | 3.2 nM | 74% |
| B7 | 0.3 nM | 86% |
| B8 | 1.21 nM | 95% |
